We go through 3 molecules from PMC5648754, “CryoEM structure of Saccharomyces cerevisiae U1 snRNP offers insight into alternative splicing” (Nature Communications, 2017).

The target in one data set is T1, yeast Prp42 (S. cerevisiae, UniProt Q03776 1-544).
T1 construct: Prp42 of S. cerevisiae, 544 residues; residues 2-540 modelled; source: endogenous, S. cerevisiae; co-purified in U1 snRNP through the TAP tag on U1A
T1 sequence (looked up): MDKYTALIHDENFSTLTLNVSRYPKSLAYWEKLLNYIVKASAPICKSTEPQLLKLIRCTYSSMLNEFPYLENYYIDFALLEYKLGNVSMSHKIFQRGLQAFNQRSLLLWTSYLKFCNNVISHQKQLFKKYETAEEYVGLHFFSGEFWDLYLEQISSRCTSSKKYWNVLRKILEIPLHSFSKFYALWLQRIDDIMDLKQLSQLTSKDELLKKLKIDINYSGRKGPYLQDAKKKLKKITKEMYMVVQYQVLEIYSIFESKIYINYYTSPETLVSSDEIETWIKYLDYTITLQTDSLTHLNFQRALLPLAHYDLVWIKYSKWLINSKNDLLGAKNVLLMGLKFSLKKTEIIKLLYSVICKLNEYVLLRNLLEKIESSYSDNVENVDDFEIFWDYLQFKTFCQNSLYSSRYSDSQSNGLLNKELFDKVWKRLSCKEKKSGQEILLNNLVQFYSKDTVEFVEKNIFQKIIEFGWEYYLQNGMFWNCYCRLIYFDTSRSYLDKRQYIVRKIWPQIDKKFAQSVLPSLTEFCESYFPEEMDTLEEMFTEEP
In words: cryo-EM structure; natively purified yeast U1 snRNP, 3.6 Å overall resolution. The settings on record: both partners purified.

For a further data set, the target named is T2, yeast U1C (S. cerevisiae, UniProt Q05900 1-231).
T2 construct: U1C of S. cerevisiae U1 snRNP, 231 residues; NTD residues 1-48; residues 3-47 and 48-195 modelled; also called Yhc1; source: endogenous, S. cerevisiae; co-purified in U1 snRNP through the TAP tag on U1A
T2 sequence (looked up): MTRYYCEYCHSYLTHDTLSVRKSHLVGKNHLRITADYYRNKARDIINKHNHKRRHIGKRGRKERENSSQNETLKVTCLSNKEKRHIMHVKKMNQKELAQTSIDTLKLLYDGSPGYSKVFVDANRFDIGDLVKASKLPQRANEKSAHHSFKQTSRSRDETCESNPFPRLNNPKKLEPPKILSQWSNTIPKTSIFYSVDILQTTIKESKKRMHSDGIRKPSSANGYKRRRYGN
Described as above. The following applies: both partners purified.

In a further data set the target is T3, yeast Snu56 (S. cerevisiae, UniProt Q03782 1-492).
T3 construct: Snu56 of S. cerevisiae, 492 residues; N-terminal domain 47-254 and long helix 255-303 modelled; source: endogenous, S. cerevisiae; co-purified in U1 snRNP through the TAP tag on U1A
T3 sequence (looked up): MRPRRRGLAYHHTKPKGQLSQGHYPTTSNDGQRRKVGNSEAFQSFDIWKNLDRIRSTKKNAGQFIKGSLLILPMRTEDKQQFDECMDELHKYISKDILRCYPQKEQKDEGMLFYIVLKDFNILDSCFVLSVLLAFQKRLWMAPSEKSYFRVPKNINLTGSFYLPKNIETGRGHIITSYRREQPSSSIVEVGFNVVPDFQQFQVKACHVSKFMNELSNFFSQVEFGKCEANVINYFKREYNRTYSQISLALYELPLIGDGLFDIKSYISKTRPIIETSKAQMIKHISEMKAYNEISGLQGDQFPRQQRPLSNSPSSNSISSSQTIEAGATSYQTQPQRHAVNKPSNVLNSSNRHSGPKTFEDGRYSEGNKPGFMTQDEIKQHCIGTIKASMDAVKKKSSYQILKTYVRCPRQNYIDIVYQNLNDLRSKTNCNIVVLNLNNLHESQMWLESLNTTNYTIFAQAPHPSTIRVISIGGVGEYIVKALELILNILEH
The data set is described as above. The settings on record: both partners purified.

For a further data set, the target named is T4, yeast Prp40 (S. cerevisiae, UniProt P33203 1-583).
T4 construct: Prp40 of S. cerevisiae U1 snRNP; not modelled in the structure; source: endogenous, S. cerevisiae; co-purified in U1 snRNP through the TAP tag on U1A
T4 sequence (looked up): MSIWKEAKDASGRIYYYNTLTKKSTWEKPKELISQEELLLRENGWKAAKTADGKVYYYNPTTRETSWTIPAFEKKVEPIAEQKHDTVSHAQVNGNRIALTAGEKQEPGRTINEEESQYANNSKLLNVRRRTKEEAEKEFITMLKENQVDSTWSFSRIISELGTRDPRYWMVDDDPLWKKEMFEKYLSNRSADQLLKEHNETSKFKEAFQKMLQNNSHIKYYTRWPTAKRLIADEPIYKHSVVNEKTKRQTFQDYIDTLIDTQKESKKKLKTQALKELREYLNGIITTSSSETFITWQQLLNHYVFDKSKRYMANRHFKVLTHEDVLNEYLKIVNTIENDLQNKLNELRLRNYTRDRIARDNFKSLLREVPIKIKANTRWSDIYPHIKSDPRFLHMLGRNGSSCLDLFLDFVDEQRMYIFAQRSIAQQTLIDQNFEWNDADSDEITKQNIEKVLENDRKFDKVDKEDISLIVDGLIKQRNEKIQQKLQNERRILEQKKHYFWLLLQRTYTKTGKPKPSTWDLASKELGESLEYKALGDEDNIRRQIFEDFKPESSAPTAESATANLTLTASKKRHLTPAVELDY
In words: cross-linking; purified yeast U1 snRNP cross-linked with 100 uM BS3, 30 min, room temperature; trypsin digest, mass spectrometry. The following applies: both partners purified.

Data set [1] deals with the molecule itself. In words: negative-stain EM; purified Flag-PrpF39; reference-free 2D class averages and preliminary 3D model compared with the Prp42/Prp39 heterodimer.

B1: yeast SmD3 (natural protein, S. cerevisiae, UniProt P43321 1-101, looked up)
chain: MTMNGIPVKLLNEAQGHIVSLELTTGATYRGKLVESEDSMNVQLRDVIATEPQGAVTHMDQIFVRGSQIKFIVVPDLLKNAPLFKKNSSRPMPPIRGPKRR
notes: SmD3 of S. cerevisiae, member of the Sm ring of U1 snRNP; source: endogenous, S. cerevisiae; co-purified in U1 snRNP through the TAP tag on U1A
Regarding B1, the binding result with yeast Prp42 and with yeast U1C was “binds” in each case.

B2: yeast Luc7 (natural protein, S. cerevisiae, UniProt Q07508 1-261, looked up)
chain: MSTMSTPAAEQRKLVEQLMGRDFSFRHNRYSHQKRDLGLHDPKICKSYLVGECPYDLFQGTKQSLGKCPQMHLTKHKIQYEREVKQGKTFPEFEREYLAILSRFVNECNGQISVALQNLKHTAEERMKIQQVTEELDVLDVRIGLMGQEIDSLIRADEVSMGMLQSVKLQELISKRKEVAKRVRNITENVGQSAQQKLQVCEVCGAYLSRLDTDRRLADHFLGKIHLGYVKMREDYDRLMKNNRTTNASKTATTLPGRRFV
notes: Luc7 of S. cerevisiae, 261 residues; first (pseudo) Zn-finger modelled; source: endogenous, S. cerevisiae; co-purified in U1 snRNP through the TAP tag on U1A
As for B2, the binding result with yeast Snu56, in the data set with yeast Prp42 and with yeast Prp40 was “binds” in each case.

B3: human PrpF39, Flag-tagged (second copy HA-tagged in the co-IP) (natural protein, UniProt Q86UA1 1-669, looked up)
chain: MQNSHMDEYRNSSNGSTGNSSEVVVEHPTDFSTEIMNVTEMEQSPDDSPNVNASTEETEMASAVDLPVTLTETEANFPPEYEKFWKTVENNPQDFTGWVYLLQYVEQENHLMAARKAFDRFFIHYPYCYGYWKKYADLEKRHDNIKPSDEVYRRGLQAIPLSVDLWIHYINFLKETLDPGDPETNNTIRGTFEHAVLAAGTDFRSDRLWEMYINWENEQGNLREVTAIYDRILGIPTQLYSHHFQRFKEHVQNNLPRDLLTGEQFIQLRRELASVNGHSGDDGPPGDDLPSGIEDITDPAKLITEIENMRHRIIEIHQEMFNYNEHEVSKRWTFEEGIKRPYFHVKPLEKAQLKNWKEYLEFEIENGTHERVVVLFERCVISCALYEEFWIKYAKYMENHSIEGVRHVFSRACTIHLPKKPMVHMLWAAFEEQQGNINEARNILKTFEECVLGLAMVRLRRVSLERRHGNLEEAEHLLQDAIKNAKSNNESSFYAVKLARHLFKIQKNLPKSRKVLLEAIERDKENTKLYLNLLEMEYSGDLKQNEENILNCFDKAVHGSLPIKMRITFSQRKVEFLEDFGSDVNKLLNAYDEHQTLLKEQDSLKRKAENGSEEPEEKKAHTEDTTSSSTQMIDGDLQANQAVYNYSAWYQYNYQNPWNYGQYYPPPPT
notes: human PrpF39; In the co-IP two differently tagged copies (Flag-PrpF39 and HA-PrpF39) were co-transfected; The purified protein carries the Flag tag; also called Flag-PrpF39; HA-PrpF39; source: HEK293FT, transfected (pEF-Bos-Flag-PrpF39 and/or pEF-Bos-HA-PrpF39), in lysate; also purified (anti-Flag M2 agarose, 3x Flag peptide elution, Superose 6 gel filtration)
Turning to B3, the stoichiometry N (usually a count of units in the complex or per binding partner) in data set [1] was 2.
